Experiments:
[1] = molecular target: BG505 SOSIP.664 HIV-1 envelope glycoprotein trimer (HIV-1 (BG505, clade A)); test: negative-stain electron microscopy; NS-EM imaging of the purified Drug Substance of the three production runs; details in SOM Methods
[2] = molecular target: BG505 SOSIP.664 HIV-1 envelope glycoprotein trimer (HIV-1 (BG505, clade A)); test: SEC; purified Drug Substance of the 50 L Confirmation, 200 L Demonstration and 200 L cGMP runs; SEC / SE-HPLC; details in SOM Methods

## BG505 SOSIP.664 HIV-1 envelope glycoprotein trimer (complex)
[1]
  stoichiometry N: 3
[2]
  stoichiometry N: 3
